Laboratory results reported in the supplement of paper PMC9112550, “Optimization of the antimicrobial peptide Bac7 by deep mutational scanning” (BMC Biology, 2022).

What follows are sequences tested on Escherichia coli TOP10 (assay: shrunken log2 fold change of peptide-encoding DNA abundance (4.5 h post-induction vs induction); higher = less antimicrobial activity (less host growth inhibition)). Conditions: time post-induction: 4.5 h; library: site-saturation at positions 5, 18, 19, 20.
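Further: peptides expressed intracellularly from a pBAD plasmid library in pooled LB shake-flask culture, induced with 0.3% L-arabinose, DNA abundance read by NGS, three biological replicates, DESeq2 with apeglm shrinkage.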

| Sequence | shrunken log2 fold change |
| --- | --- |
| RRIRIRPPRLPRPRPRPSQLPRP | -0.385 |
| RRIRCRPPRLPRPRPRPCIGPRP | -0.204 |
| RRIRGRPPRLPRPRPRPRMDPRP | 0.59 |
| RRIRIRPPRLPRPRPRPQVHPRP | -0.707 |
| RRIRNRPPRLPRPRPRPKNFPRP | 0.0662 |
| RRIRFRPPRLPRPRPRPVLIPRP | -0.17 |
| RRIRSRPPRLPRPRPRPNIKPRP | -0.491 |
| RRIRKRPPRLPRPRPRPSAYPRP | -0.277 |
| RRIRMRPPRLPRPRPRPQVGPRP | 0.12 |
| RRIRVRPPRLPRPRPRPNKGPRP | -0.47 |
| RRIRLRPPRLPRPRPRPSMKPRP | -0.252 |
| RRIRHRPPRLPRPRPRPSVRPRP | -0.158 |
| RRIRRRPPRLPRPRPRPWTQPRP | -0.0997 |
| RRIRSRPPRLPRPRPRPQTEPRP | -0.0463 |
| RRIRERPPRLPRPRPRPDQGPRP | 0.0476 |
| RRIRARPPRLPRPRPRPNTDPRP | -0.127 |
| RRIRYRPPRLPRPRPRPVRFPRP | -0.0685 |
| RRIRKRPPRLPRPRPRPTMSPRP | 0.22 |
| RRIRGRPPRLPRPRPRPSEYPRP | -0.0981 |
| RRIRQRPPRLPRPRPRPCDRPRP | -0.0449 |
| RRIRERPPRLPRPRPRPIEDPRP | -0.199 |
| RRIRRRPPRLPRPRPRPYQTPRP | -0.071 |
| RRIRKRPPRLPRPRPRPQGSPRP | -0.0103 |
| RRIRCRPPRLPRPRPRPDSPPRP | -0.353 |
| RRIRFRPPRLPRPRPRPHTMPRP | -0.459 |

| Sequence | shrunken log2 fold change |
| --- | --- |
| RRIRYRPPRLPRPRPRPSAEPRP | -0.0651 |
| RRIRLRPPRLPRPRPRPGKFPRP | 0.117 |
| RRIRQRPPRLPRPRPRPPWHPRP | 0.187 |
| RRIRRRPPRLPRPRPRPHEKPRP | 0.0358 |
| RRIRMRPPRLPRPRPRPGEGPRP | 1.23 |
| RRIRKRPPRLPRPRPRPAAGPRP | 0.896 |
| RRIRPRPPRLPRPRPRPVTKPRP | 0.138 |
| RRIRIRPPRLPRPRPRPWGYPRP | -0.156 |
| RRIRCRPPRLPRPRPRPVYTPRP | -0.222 |
| RRIRHRPPRLPRPRPRPNHAPRP | -0.223 |
| RRIRYRPPRLPRPRPRPLNTPRP | -0.234 |
| RRIRPRPPRLPRPRPRPMCKPRP | -0.274 |
| RRIRWRPPRLPRPRPRPETRPRP | 1.32 |
| RRIRIRPPRLPRPRPRPAMRPRP | 1.37 |
| RRIRMRPPRLPRPRPRPHPPPRP | 1.26 |
| RRIRIRPPRLPRPRPRPDPSPRP | -0.0293 |
| RRIRYRPPRLPRPRPRPAVAPRP | 0.159 |
| RRIRHRPPRLPRPRPRPLCRPRP | 0.0244 |
| RRIRIRPPRLPRPRPRPDCAPRP | -0.0601 |
| RRIRCRPPRLPRPRPRPDHVPRP | 0.021 |
| RRIRLRPPRLPRPRPRPVGWPRP | 0.671 |
| RRIRIRPPRLPRPRPRPPQDPRP | 0.0725 |
| RRIRRRPPRLPRPRPRPCPGPRP | -0.196 |
| RRIRIRPPRLPRPRPRPRLEPRP | 0.117 |
| RRIRERPPRLPRPRPRPFGVPRP | 0.00331 |

| Sequence | shrunken log2 fold change |
| --- | --- |
| RRIRTRPPRLPRPRPRPYNVPRP | -0.297 |
| RRIRYRPPRLPRPRPRPIYEPRP | 0.0166 |
| RRIRLRPPRLPRPRPRPIEYPRP | -0.426 |
| RRIRTRPPRLPRPRPRPQSKPRP | -0.209 |
| RRIRNRPPRLPRPRPRPTTVPRP | -0.12 |
| RRIRQRPPRLPRPRPRPLFDPRP | -0.607 |
| RRIRLRPPRLPRPRPRPRSEPRP | 0.235 |
| RRIRYRPPRLPRPRPRPYRTPRP | -0.588 |
| RRIRPRPPRLPRPRPRPWQVPRP | -0.0573 |
| RRIRFRPPRLPRPRPRPFWSPRP | -0.0458 |
| RRIRTRPPRLPRPRPRPMFVPRP | -0.215 |
| RRIRRRPPRLPRPRPRPLPMPRP | 0.541 |
| RRIRARPPRLPRPRPRPLEGPRP | 0.564 |
| RRIRSRPPRLPRPRPRPMWWPRP | 0.551 |
| RRIRFRPPRLPRPRPRPDWCPRP | -0.00301 |
| RRIRQRPPRLPRPRPRPNHNPRP | -0.893 |
| RRIRIRPPRLPRPRPRPMCLPRP | -0.425 |
| RRIRSRPPRLPRPRPRPGLLPRP | -0.0369 |
| RRIRIRPPRLPRPRPRPMDPPRP | -0.347 |
| RRIRWRPPRLPRPRPRPPMPPRP | 0.444 |
| RRIRYRPPRLPRPRPRPPWEPRP | -0.381 |
| RRIRHRPPRLPRPRPRPRWYPRP | -0.137 |
| RRIRHRPPRLPRPRPRPMMDPRP | -0.214 |
| RRIRNRPPRLPRPRPRPLQQPRP | 0.0184 |
| RRIRCRPPRLPRPRPRPHDYPRP | -0.482 |

| Sequence | shrunken log2 fold change |
| --- | --- |
| RRIRHRPPRLPRPRPRPWLDPRP | -0.377 |
| RRIRTRPPRLPRPRPRPLICPRP | -0.277 |
| RRIRFRPPRLPRPRPRPYLIPRP | -0.417 |
| RRIRHRPPRLPRPRPRPNNKPRP | -0.75 |
| RRIRMRPPRLPRPRPRPMWQPRP | 0.188 |
| RRIRARPPRLPRPRPRPTQDPRP | 0.974 |
| RRIRHRPPRLPRPRPRPMVKPRP | -0.0243 |
| RRIRRRPPRLPRPRPRPLLKPRP | 0.415 |
| RRIRRRPPRLPRPRPRPWVDPRP | 0.0233 |
| RRIRERPPRLPRPRPRPFPQPRP | 2.37 |
| RRIRRRPPRLPRPRPRPMALPRP | 5.63e-05 |
| RRIRNRPPRLPRPRPRPYEDPRP | -0.173 |
| RRIRPRPPRLPRPRPRPLQVPRP | 0.013 |
| RRIRLRPPRLPRPRPRPVEFPRP | 0.0713 |
| RRIRWRPPRLPRPRPRPNKKPRP | -0.076 |
| RRIRTRPPRLPRPRPRPRGEPRP | 0.152 |
| RRIRMRPPRLPRPRPRPMMWPRP | 0.274 |
| RRIRPRPPRLPRPRPRPSVCPRP | -0.273 |
| RRIRMRPPRLPRPRPRPDPMPRP | 0.501 |
| RRIRIRPPRLPRPRPRPLKEPRP | -0.568 |
| RRIRDRPPRLPRPRPRPACGPRP | 0.684 |
| RRIRHRPPRLPRPRPRPCCPPRP | -0.243 |
| RRIRIRPPRLPRPRPRPPCEPRP | 0.00219 |
| RRIRARPPRLPRPRPRPMYAPRP | 0.207 |
| RRIRQRPPRLPRPRPRPCGIPRP | -0.115 |

| Sequence | shrunken log2 fold change |
| --- | --- |
| RRIRARPPRLPRPRPRPSAEPRP | 0.976 |
| RRIRPRPPRLPRPRPRPTWVPRP | 0.0694 |
| RRIRMRPPRLPRPRPRPDWAPRP | 0.469 |
| RRIRQRPPRLPRPRPRPAVSPRP | -0.0348 |
| RRIRWRPPRLPRPRPRPGMSPRP | 0.893 |
| RRIRWRPPRLPRPRPRPCKHPRP | -0.245 |
| RRIRFRPPRLPRPRPRPYALPRP | -0.0591 |
| RRIRKRPPRLPRPRPRPTLEPRP | 0.132 |
| RRIRWRPPRLPRPRPRPQDTPRP | -0.0161 |
| RRIRIRPPRLPRPRPRPMGFPRP | 0.0523 |
| RRIRYRPPRLPRPRPRPKPPPRP | 0.524 |
| RRIRTRPPRLPRPRPRPFRYPRP | -0.0915 |
| RRIRQRPPRLPRPRPRPNAAPRP | 0.0416 |
| RRIRVRPPRLPRPRPRPTENPRP | 0.00381 |
| RRIRMRPPRLPRPRPRPQWYPRP | -0.161 |
| RRIRNRPPRLPRPRPRPVSQPRP | -0.0152 |
| RRIRCRPPRLPRPRPRPTIEPRP | -0.276 |
| RRIRKRPPRLPRPRPRPNMTPRP | 0.0525 |
| RRIRFRPPRLPRPRPRPSQAPRP | -0.0595 |
| RRIRGRPPRLPRPRPRPWYMPRP | 0.0753 |
| RRIRWRPPRLPRPRPRPNWCPRP | -0.0188 |
| RRIRRRPPRLPRPRPRPEQFPRP | 0.212 |
| RRIRRRPPRLPRPRPRPRDVPRP | 0.328 |
| RRIRQRPPRLPRPRPRPNVQPRP | 0.031 |
| RRIRCRPPRLPRPRPRPSVTPRP | -0.288 |
